Results from patent US20230357447A1 (JANUX THERAPEUTICS, published 2023).
Ends that are not written are not given here.

Tests used:
[1] = biological target: T1, Ab-12, anti-PD-L1xCD28 non-masked antibody in Vh format; assay: competition ELISA: peptide titrated against 5 nM Ab-12; binding of Ab-12 to captured biotinylated CD28 antigen is read
T1 construct: also called PDL1xCD28 non-masked (Vh)

[2] = biological target: T2, anti-CD28 scFv (SEQ ID NO: 9); assay: competition ELISA: peptide titrated against 2 nM anti-CD28 scFv; binding of the scFv to captured biotinylated CD28 antigen is read; table prints 'IC50 nM' but the axis is Log [Peptide, uM]; no fall of the signal
T2 construct: also called Anti-CD28 scFv (VH-linker 1-VL)

[3] = biological target: T1, Ab-12, anti-PD-L1xCD28 non-masked …; assay: competition ELISA: peptide titrated against 5 nM Ab-12; binding of Ab-12 to captured biotinylated CD28 antigen is read; table prints 'IC50 nM' but the axis is Log [Peptide, uM]; no fall of the signal

B1: Peptide-44 (peptide)
peptide: MDWCPRDMWSVCFS
modifications: cysteine pairing not given here; also: biotinylated, site not given here
notes: Synthetic biotinylated peptide loaded on streptavidin biosensors
IC50 [1]: 940 nM

B2: Peptide-45 (peptide)
peptide: MDWCPRFMWDECFN
modifications: cysteine pairing not given here; also: biotinylated, site not given here
notes: as for B1
IC50 [1]: 370 nM

B3: Peptide-46 (peptide)
peptide: MDWCPRHMWNYCFA
modifications: cysteine pairing not given here; also: biotinylated, site not given here
notes: as for B1
IC50 [1]: 240 nM

B4: Peptide-48 (peptide)
peptide: MDWCPRYLWHVCFA
modifications: cysteine pairing not given here; also: biotinylated, site not given here
notes: as for B1
IC50 [1]: 790 nM

YWYCSPSIVRCVLV (cysteine pairing not given here; also: biotinylated, site not given here, biotinylated when captured on the plate) [Peptide-1]
IC50 [2]: > 100 nM

LICKSGSILILCAQ (cysteine pairing not given here; also: biotinylated, site not given here, biotinylated when captured on the plate) [Peptide-2]
IC50 [2]: > 100 nM

SPCGLFQWMEICEF (cysteine pairing not given here; also: biotinylated, site not given here, biotinylated when captured on the plate) [Peptide-3]
IC50 [2]: > 100 nM

SFCGLFLDLWICEF (cysteine pairing not given here; also: biotinylated, site not given here, biotinylated when captured on the plate) [Peptide-4]
IC50 [2]: > 100 nM

GQHCATSMWRYCMF (cysteine pairing not given here; also: biotinylated, site not given here, biotinylated when captured on the plate) [Peptide-10]
IC50 [3]: > 100 nM

WICDKSGSIMLCRA (cysteine pairing not given here; also: biotinylated, site not given here, biotinylated when captured on the plate) [Peptide-11]
IC50 [3]: > 100 nM

DNCHYIWGFEWQCG (cysteine pairing not given here; also: biotinylated, site not given here, biotinylated when captured on the plate) [Peptide-13]
IC50 [3]: > 100 nM

IDCIMVHMVKPWCF (cysteine pairing not given here; also: biotinylated, site not given here, biotinylated when captured on the plate) [Peptide-14]
IC50 [3]: > 100 nM

NCQPWYWNMFAFGC (cysteine pairing not given here; also: biotinylated, site not given here, biotinylated when captured on the plate) [Peptide-15]
IC50 [3]: > 100 nM

NCQPWYWNMIAFGC (cysteine pairing not given here; also: biotinylated, site not given here, biotinylated when captured on the plate) [Peptide-16]
IC50 [3]: > 100 nM

GCFTWSQRTFPFTC (cysteine pairing not given here; also: biotinylated, site not given here, biotinylated when captured on the plate) [Peptide-17]
IC50 [3]: > 100 nM

CFYAEYYDQVYSFC (cysteine pairing not given here; also: biotinylated, site not given here, biotinylated when captured on the plate) [Peptide-18]
IC50 [3]: > 100 nM
